Measurements published in the nanobody polyreactivity screen of Harvey et al. (2022).

Test: yeast display, Sf9 membrane polyspecificity reagent, FACS + sequencing; frameworks hold sequencing errors
Outline: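 Polyreactivity labels are assigned by the sorting gate from which each nanobody was recovered. The gates were low and high (top ~1%), set on anti-HA fluorescence for expression and streptavidin fluorescence for reagent binding. Before sorting, galactose-induced (36–48 hours) yeast display cells were stained for 1 hour at 4 °C with 10% biotinylated, detergent-solubilized Sf9 membrane reagent.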
For “QVQLVESGGGLVQGGGSLRLSCAASGSIFSDNAMGWYRQAPGKERELVATITFSGASTYYADSVKGRFTISRDNAKNTVYLKMNSLKPEDTAVYYCAAEEPDVIAQPGFDYWGQGTQVTVSS”, the “polyreactivity (PSR sort gate)” value was “low polyreactivity”.
In the case of “QVQLVESGGGLVQGGGSLRLSCADSGSTFSSNAMGWYRQAPGKERELVAAITGSGGRTYYADSVKRRFTISRDNAKNTVYLQMNCLKPEDTAVYYCAKRYRGGYWGQGTQVTVSS”, the “polyreactivity (PSR sort gate)” value is reported as “high polyreactivity”.
In the case of “QVQLVESGGGLVQGGGSLSLSCAASGSIFLYYAMGWYRQAPGKERELVAGIRRGGRTNYSDSVKGRFTISRDNAKNNVYLQMNSLKPEDTAVDYCAKGGYCGQGTQVTVSS”, the “polyreactivity (PSR sort gate)” value is reported as “high polyreactivity”.
In the case of “QVQLVESGGGLVQPGGRLLLSSAASGSIFDYYVMGWYRLEPVKERELVAAISWSGASTYYADSVKGRFTISRDNAKNTVYVKMNSLKPEDTAVYYCAADYGVNTLIDYDYWGQGTQVTVSS”, the “polyreactivity (PSR sort gate)” value is reported as “low polyreactivity”.
For “QVQLVESGGGLVQPGGSFHLSCAASGSIFVVYAMGWYRQAPVKERELVAAITSGGSTYYADSVKGRFTISRDNAKKTVYLQMNSLKPEDTAVYYCATTYRDGVYELTTFDYWGQGTQVTVSS”, the “polyreactivity (PSR sort gate)” value was “low polyreactivity”.
With “QVQLVESGGGLVQPGGSLRISCAASGFTFVYYVMGWYRQAPGKERELVAAINAGGGSTYYADSVKGRFTISRDNAKNTVYLQMNSLKPEDTAVYFCNARVRVRLGRNWSSYYYWGQGTEVTVSS” the “polyreactivity (PSR sort gate)” value was “high polyreactivity”.
For “QVQLVESGGGLVQPGGSLRLSCAASGFIFPTNVMGWSRQAPGKEREFVASITWRGGGTYYADSVKGRFRISRDNAKNTVYVQMNSLKPEDTAVYYCAAGRSWSSYWKYDYWGQGTQVTVSS”, the “polyreactivity (PSR sort gate)” value was “low polyreactivity”.
For “QVQLVESGGGLVQPGGSLRLSCAASGGTFQPNAMVWYRQAPGKERELVAAISWSDGSTYYADSVKGRFTISLDNAKNTVYLQMNSLKPVDTAVYYCAADFTYYDSPYRDYNYESWGQGTQVTVSS”, the “polyreactivity (PSR sort gate)” value was “low polyreactivity”.
In the case of “QVQLVESGGGLVQPGGSLRLSCAASGRTFTKNAMGWYRQAPGKERELVAAISISGGSTYYADSVKGRFTISRDNAKNTVYLLMNSLKPEDTAVYYCAADVVTYLSYTLDYWGQGTQVTVSS”, the “polyreactivity (PSR sort gate)” value is reported as “low polyreactivity”.
In the case of “QVQLVESGGGLVQPGGSLRLSCAASGSIDCYGMGWYRQAPGKERELVAIITSVYSTYYADSVKGRFKISRDNAKNTVYLQMNSLKPEDTAVYYCAATAAYFYGQFYYWGQGTQVTVSS”, the “polyreactivity (PSR sort gate)” value is reported as “high polyreactivity”.
For “QVQLVESGGGLVQPGGSLRLSCAASGSIFLRYAMGWYRQAPGKERELVAGITSGGSTNYADSVKGRFTISRDNAKNTVYLQMNSLKPEDTAVYYCNKDLPDWGQGTQVTVSS”, the “polyreactivity (PSR sort gate)” value was “low polyreactivity”.
In the case of “QVQLVESGGGLVQPGGSLRLSCAASGSIFYCNAMGSYRQAPGKEREFVAGITTSGGSTYYADSVKGRFTISRDNAKNTVYLQMNSLKPDDTAVYYCNKVWVYAVTPSSWYKYGSWGQGNQVTVSS”, the “polyreactivity (PSR sort gate)” value is reported as “low polyreactivity”.
With “QVQLVESGGGLVQPGGSLRLSCAASGSIVKSYAMGWYRQAPGKERELVAAITWRSGRTYYADSVKGRFTISRDNAKNTVYLQMNSLKPEDTAVYYCAADDTSYYIYSYDYWGQGTQVTVSS” the “polyreactivity (PSR sort gate)” value was “low polyreactivity”.
With “QVQLVESGGGLVQPGGSLRLSCAAYRSTFTDYDKGWYRQAPGKERELVAAITSGGSTNYADSVKGRFTISRDNAKNTFYLQLNSLKPEDTAVYYCAAADSDRKYDYWGQGTQVTVSS” the “polyreactivity (PSR sort gate)” value was “low polyreactivity”.
For “QVQLVESGGGLVQPGGSLRLSCSASGSIFRVYGMGWYRQAPGKERELVAAITWSGGSTYYADSVKGRFSISRDKAKNTVYLQQNSLKPEDTAVYYCAARARPRYYRPPYDYWGQGTQVTVSS”, the “polyreactivity (PSR sort gate)” value was “high polyreactivity”.
For “QVQLVESGGGLVQPGGSLRLSGAASGRILTYYAMGWYRQAPGKERELFAAISWRAGSTYYADSVKGRFTISRDNAKNTVYLQMNSLKPEDTAVYYCAAKPYYIPTRTYSHYNYWGQGTLVTVSS”, the “polyreactivity (PSR sort gate)” value was “high polyreactivity”.
